Measured values: patent publication US20250312499A1, “KISSPEPTIN RECEPTOR (KISS1R) TARGETED THERAPEUTICS AND USES THEREOF” (priority 2024, published 2025)
Numbered stars: 1 amine (or outer) side, 2 acyl side, 3 side chain; on linkers, the order of the positions; unused ones are H or OH. Square brackets hold non-standard residues; d marks the D form. * marks the point of attachment. X10 = 3‑(2-(2-(3-(4-iodophenyl)propanamido)ethoxy)ethoxy)propanoyl, O=C(CCc1ccc(I)cc1)NCCOCCOCCC(=O)*; X6 = 3‑(2-(2-(3-(p-tolyl)propanamido)ethoxy)ethoxy)propanoyl, Cc1ccc(CCC(=O)NCCOCCOCCC(=O)*)cc1; DOTA = O=C(O)CN1CCN(CC(=O)O)CCN(CC(=O)*)CCN(CC(=O)O)CC1; Api(1-amidino) = N=C(N)N1CCC(N)(C(=O)O)CC1; d(γGlu) = O=C(O)[C@@H](CCC(=O)[*:2])N[*:1]; Phe(4-CN) = N#Cc1ccc(C[C@H](N)C(=O)O)cc1; Palmitoyl = CCCCCCCCCCCCCCCC(=O)*; Cha = N[C@@H](CC1CCCCC1)C(=O)O; Lauroyl = CCCCCCCCCCCC(=O)*; Octanoyl = CCCCCCCC(=O)*; azaGly = NNC(=O)O

Target: human kisspeptin receptor (KISS1R) (human), Q969F8
Sequence (Q969F8 whole entry): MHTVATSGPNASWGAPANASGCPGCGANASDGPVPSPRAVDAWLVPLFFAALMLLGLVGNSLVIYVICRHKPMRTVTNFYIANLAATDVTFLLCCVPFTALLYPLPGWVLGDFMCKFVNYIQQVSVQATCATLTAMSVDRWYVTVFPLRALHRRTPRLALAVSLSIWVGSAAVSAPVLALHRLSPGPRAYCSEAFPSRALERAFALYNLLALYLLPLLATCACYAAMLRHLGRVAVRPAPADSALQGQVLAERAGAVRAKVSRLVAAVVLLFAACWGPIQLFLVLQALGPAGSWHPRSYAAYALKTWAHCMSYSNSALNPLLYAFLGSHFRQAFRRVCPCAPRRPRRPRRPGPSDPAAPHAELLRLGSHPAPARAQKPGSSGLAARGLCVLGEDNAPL
Assay: radioligand competition, hKISS1R membranes; legend: A is <10 nM

| Ki | Binder |
| --- | --- |
| < 10 nM | {3‑(4-iodophenyl)propanoyl}-[d(γGlu)][dY]K(DOTA)NTF[azaGly]L[Api(1-amidino)]W-NH2 [Compound 320] |
| < 10 nM | X10-[dY]K(DOTA)NTF[azaGly]L[Api(1-amidino)][Phe(4-CN)]-NH2 (SMILES CC(C)C[C@H](NC(=O)NNC(=O)[C@H](Cc1ccccc1)NC(=O)[C@@H](NC(=O)[C@H](CC(N)=O)NC(=O)[C@H](CCCCNC(=O)CN1CCN(CC(=O)O)CCN(CC(=O)O)CCN(CC(=O)O)CC1)NC(=O)[C@@H](Cc1ccc(O)cc1)NC(=O)CCOCCOCCNC(=O)CCc1ccc(I)cc1)[C@@H](C)O)C(=O)NC1(C(=O)N[C@@H](Cc2ccc(C#N)cc2)C(N)=O)CCN(C(=N)N)CC1) [Compound 325] |
| < 10 nM | X6-[dY]K(DOTA)NTF[azaGly]L[Api(1-amidino)]F-NH2 (SMILES Cc1ccc(CCC(=O)NCCOCCOCCC(=O)N[C@H](Cc2ccc(O)cc2)C(=O)N[C@@H](CCCCNC(=O)CN2CCN(CC(=O)O)CCN(CC(=O)O)CCN(CC(=O)O)CC2)C(=O)N[C@@H](CC(N)=O)C(=O)N[C@H](C(=O)N[C@@H](Cc2ccccc2)C(=O)NNC(=O)N[C@@H](CC(C)C)C(=O)NC2(C(=O)N[C@@H](Cc3ccccc3)C(N)=O)CCN(C(=N)N)CC2)[C@@H](C)O)cc1) [Compound 322] |
| < 10 nM | X6-[dY]K(DOTA)NT[Cha][azaGly]L[Api(1-amidino)]W-NH2 (SMILES Cc1ccc(CCC(=O)NCCOCCOCCC(=O)N[C@H](Cc2ccc(O)cc2)C(=O)N[C@@H](CCCCNC(=O)CN2CCN(CC(=O)O)CCN(CC(=O)O)CCN(CC(=O)O)CC2)C(=O)N[C@@H](CC(N)=O)C(=O)N[C@H](C(=O)N[C@@H](CC2CCCCC2)C(=O)NNC(=O)N[C@@H](CC(C)C)C(=O)NC2(C(=O)N[C@@H](Cc3c[nH]c4ccccc34)C(N)=O)CCN(C(=N)N)CC2)[C@@H](C)O)cc1) [Compound 326] |
| < 10 nM | Lauroyl-[dY]K(DOTA)NTF[azaGly]L[Api(1-amidino)]Y-NH2 (SMILES CCCCCCCCCCCC(=O)N[C@H](Cc1ccc(O)cc1)C(=O)N[C@@H](CCCCNC(=O)CN1CCN(CC(=O)O)CCN(CC(=O)O)CCN(CC(=O)O)CC1)C(=O)N[C@@H](CC(N)=O)C(=O)N[C@H](C(=O)N[C@@H](Cc1ccccc1)C(=O)NNC(=O)N[C@@H](CC(C)C)C(=O)NC1(C(=O)N[C@@H](Cc2ccc(O)cc2)C(N)=O)CCN(C(=N)N)CC1)[C@@H](C)O) [Compound 331] |
| < 10 nM | Palmitoyl-[dY]K(DOTA)NTF[azaGly]L[Api(1-amidino)]W-NH2 (SMILES CCCCCCCCCCCCCCCC(=O)N[C@H](Cc1ccc(O)cc1)C(=O)N[C@@H](CCCCNC(=O)CN1CCN(CC(=O)O)CCN(CC(=O)O)CCN(CC(=O)O)CC1)C(=O)N[C@@H](CC(N)=O)C(=O)N[C@H](C(=O)N[C@@H](Cc1ccccc1)C(=O)NNC(=O)N[C@@H](CC(C)C)C(=O)NC1(C(=O)N[C@@H](Cc2c[nH]c3ccccc23)C(N)=O)CCN(C(=N)N)CC1)[C@@H](C)O) [Compound 328] |
| < 10 nM | {3‑(4-iodophenyl)propanoyl}-[dY]K(DOTA)NTF[azaGly]L[Api(1-amidino)]W-NH2 [Compound 321] |
| < 10 nM | Octanoyl-[dY]K(DOTA)NTF[azaGly]L[Api(1-amidino)]Y-NH2 (SMILES CCCCCCCC(=O)N[C@H](Cc1ccc(O)cc1)C(=O)N[C@@H](CCCCNC(=O)CN1CCN(CC(=O)O)CCN(CC(=O)O)CCN(CC(=O)O)CC1)C(=O)N[C@@H](CC(N)=O)C(=O)N[C@H](C(=O)N[C@@H](Cc1ccccc1)C(=O)NNC(=O)N[C@@H](CC(C)C)C(=O)NC1(C(=O)N[C@@H](Cc2ccc(O)cc2)C(N)=O)CCN(C(=N)N)CC1)[C@@H](C)O) [Compound 332] |
| < 10 nM | X10-[dY]K(DOTA)NTF[azaGly]L[Api(1-amidino)]F-NH2 (SMILES CC(C)C[C@H](NC(=O)NNC(=O)[C@H](Cc1ccccc1)NC(=O)[C@@H](NC(=O)[C@H](CC(N)=O)NC(=O)[C@H](CCCCNC(=O)CN1CCN(CC(=O)O)CCN(CC(=O)O)CCN(CC(=O)O)CC1)NC(=O)[C@@H](Cc1ccc(O)cc1)NC(=O)CCOCCOCCNC(=O)CCc1ccc(I)cc1)[C@@H](C)O)C(=O)NC1(C(=O)N[C@@H](Cc2ccccc2)C(N)=O)CCN(C(=N)N)CC1) [Compound 323] |
| < 10 nM | X10-[dY]K(DOTA)NT[Cha][azaGly]L[Api(1-amidino)]W-NH2 (SMILES CC(C)C[C@H](NC(=O)NNC(=O)[C@H](CC1CCCCC1)NC(=O)[C@@H](NC(=O)[C@H](CC(N)=O)NC(=O)[C@H](CCCCNC(=O)CN1CCN(CC(=O)O)CCN(CC(=O)O)CCN(CC(=O)O)CC1)NC(=O)[C@@H](Cc1ccc(O)cc1)NC(=O)CCOCCOCCNC(=O)CCc1ccc(I)cc1)[C@@H](C)O)C(=O)NC1(C(=O)N[C@@H](Cc2c[nH]c3ccccc23)C(N)=O)CCN(C(=N)N)CC1) [Compound 327] |
| < 10 nM | Palmitoyl-[dY]K(DOTA)NTF[azaGly]L[Api(1-amidino)]Y-NH2 (SMILES CCCCCCCCCCCCCCCC(=O)N[C@H](Cc1ccc(O)cc1)C(=O)N[C@@H](CCCCNC(=O)CN1CCN(CC(=O)O)CCN(CC(=O)O)CCN(CC(=O)O)CC1)C(=O)N[C@@H](CC(N)=O)C(=O)N[C@H](C(=O)N[C@@H](Cc1ccccc1)C(=O)NNC(=O)N[C@@H](CC(C)C)C(=O)NC1(C(=O)N[C@@H](Cc2ccc(O)cc2)C(N)=O)CCN(C(=N)N)CC1)[C@@H](C)O) [Compound 330] |
| < 10 nM | X10-[dY]K(DOTA)NTF[azaGly]L[Api(1-amidino)]Y-NH2 (SMILES CC(C)C[C@H](NC(=O)NNC(=O)[C@H](Cc1ccccc1)NC(=O)[C@@H](NC(=O)[C@H](CC(N)=O)NC(=O)[C@H](CCCCNC(=O)CN1CCN(CC(=O)O)CCN(CC(=O)O)CCN(CC(=O)O)CC1)NC(=O)[C@@H](Cc1ccc(O)cc1)NC(=O)CCOCCOCCNC(=O)CCc1ccc(I)cc1)[C@@H](C)O)C(=O)NC1(C(=O)N[C@@H](Cc2ccc(O)cc2)C(N)=O)CCN(C(=N)N)CC1) [Compound 324] |
| < 10 nM | Lauroyl-[dY]K(DOTA)NTF[azaGly]L[Api(1-amidino)]W-NH2 (SMILES CCCCCCCCCCCC(=O)N[C@H](Cc1ccc(O)cc1)C(=O)N[C@@H](CCCCNC(=O)CN1CCN(CC(=O)O)CCN(CC(=O)O)CCN(CC(=O)O)CC1)C(=O)N[C@@H](CC(N)=O)C(=O)N[C@H](C(=O)N[C@@H](Cc1ccccc1)C(=O)NNC(=O)N[C@@H](CC(C)C)C(=O)NC1(C(=O)N[C@@H](Cc2c[nH]c3ccccc23)C(N)=O)CCN(C(=N)N)CC1)[C@@H](C)O) [Compound 329] |
